Reference: a protein production outcome set (Wang et al. 2014)

Assay: label from the status in PepcDB records

MFLSAASSIIYLLLFFIASLIILVFSSDAFFDNAVPMFRSRGIGDMYAGTIFVGFASVLDEIALSASSLIFRHPEIGIGAVEGSNLITMAFFTVIVAVSYLEVAGEFTLDMIVILVLTILSMVFAEIFVHIPWFYSIALFVPFVVYLVIKAGGSKEAGYGPQEYSNIVLIVSFFLIFLSSDTLVRSTIGIASYTGINLVDLSAYGIGMVSSFPEIIMILVSLRGGRKVVSMGIFTGSTVYKMSLIPGIIIVSEPTGFSDIFYMLLAILVMSLLVLFLGIMSRKSQGRSNIH
protein production: failed

MFLSRPLVRIASAADRFLHGETEVKIPVKHDDEIGRLARAFNYLSEEIVRLTRKEEWLREVLSSIREAIIVTNASGEIVLANPAASRLFMIEAARKRSIPVTNIEDAAMRELFERVQKRQSGIYNEELTAMTSKGKRTLKVTAVPVMRRGALFDGTVLVINDVTRLRNLERTRRDFVSSVSHELRTPLASIKGYTETLLEGAMNDPENATAFLNIIHQEAEQLTALVNDVLDLSRIESGKIAYSFEPVDVKPQLEKTAALFEPAAARKGVRIELNAPEGLPAVLADRSYFDIVVRNLIDNAIKYVDAESGRVRVSAYATGDSVSIEVADNGIGIPQADLDRIFERFYRVDKARSRELGGTGLGLSIVKHIVLAHKGKVEVRSRINRGTTFTVTLPVAGA
protein production: failed

MFLTAVNPQPLSTPSWQIETKYSTKVLTGNWMEERRKFTRDTDKTPQSIYRKEYIPFPDHRPDQISRWYGKRKVEGLPYKHLITHHQEPPHRYLISTYDDHYNRHGYNPGLPPLRTWNGQKLLWLPEKSDFPLLAPPTNYGLYEQLKQRQLTPKAGLKQSTYTSSYPRPPLCAMSWREHAVPVPPHRLHPLPHF
protein production: failed

MFMNRLFGKPKQETSTLQTLDKLNETLEMLEKKENVLLKKATGEVEKAKEFSRAKNKRAAIQCLKRKRLYEQQVEQLGNFQLRIHDQMIMLEGAKATTETVDALRTGASAMKAMQKATNIDDVDKTMDEINEQTENMKQIQEALSAPFGANDFDEDELEAELDELEGAELEEQLLQPVPIHVPQGNKPARAPAQKQPTAEEDELAALQAEMAL
protein production: failed

MFNFAVSRESLLSGFQWFFFIFCNTVVVPPTLLSAFQLPQSSLLTLTQYAFLATALACFAQAFCGHRRAIMEGPGGLWWGTILTITLGEASRGTPINDIATSLAVGIALSGVLTMLIGFSGLGHRLARLFTPSVMVLFMLMLGAQLTTIFFKGMLGLPFGIADPNFKIQLPPFALSVAVMCLVLAMIIFLPQRFARYGLLVGTITGWLLWYFCFPSSHSLSGELHWQWFPLGSGGALSPGIILTAVITGLVNISNTYGAIRGTDVFYPQQGAGNTRYRRSFVATGFMTLITVPLAVIPFSPFVSSIGLLTQTGDYTRRSFIYGSVICLLVALVPALTRLFCSIPLPVSSAVMLVSYLPLLFSALVFSQQITFTARNIYRLALPLFVGIFLMALPPVYLQDLPLTLRPLLSNGLLVGILLAVLMDNLIPWERIE
protein production: failed

MFNGMVRTIRDSVVGTYPSCHVSSRLEERRAKQRAMRQERRRKPDKPDDFVTYEDSGSDEETPQQQEEVLNTSYNLCDYLRSRESGLRDRRSVNVEYTSRYVLTHDMLRETQISLGYINKVFCSKWLSSRQVVFGTKCNKLLVYDVNMRRVDAIPTLSNSRANHPEVQGGLHAIELSPSRSFLATGARNSSDIAVYRLPTLDPVCVGEGGHRDLIMGMCWLDDQFLVSGSKDSRMALWRINEDHMEFPDGGEEACPTFATIHPLSVKEVRTAQRIRSLCFNKEFKEIAALSLNGYIHIFNAETFKQTLSRKLPNCQDNVSIAYHSDGLYAVGCRSYTILLDARTLQTIKKITSRYSGCGIRATSFEGNLLTVGTGLGMLLFYDIRAGKYLESSVNASRTVALKCSKGIVYPEDEMDGFQQVKYVPAIYTHCYDSTRMRLFAAGGPLPATLVGNYAGVWQ
protein production: failed

MFNNDRLLVQILLLALFGACLWVMAPFWSALVWGAVLAFASWPLMRLLTRWFKGRESLAALVMCLCWMLLVAAPLVWLGFNLADHVRDATALIKDIQVDGLPDPPQWLAGIPLVGERLVGLWTTIDQQGAAFMTTVKPYLGEVGNWLLARSAQIGGGILELTLSIVFAFFFYRDGPRLAAFVLSLLERLIGDRAQYYLDLVAGTVQRVVNGVIGTAAAQALLALIGFLIAGIPGALVLGILTFLFSLIPMGPPLVWLPATAWLVWQGEYGMAIFLGIWGMFVISGVDNVLKPYLISRGGNLPLVIVLLGVFGGLLAFGFIGLFIGPTLLAVAYSLLTDWVGSERARNPR
protein production: failed

MFPFGPHSPGGDETAGAEEPPPLGGPAAASRPPSPAPRPASPQRGADAASPPPVAGSPRLPGGPAVSPAERAGEFAAPGALELSAATASASQAKLSPSSSPRRRSRPDWRAGGRSRQGLGAGLGGPGARLFGWLRERSLGRGLFVDPARDNFRTMTNLYGSIHPADSVYLSTRTHGAVFNLEYSPDGSVLTVACEQTEVLLFDPISSKHIKTLSEAHEDCVNNIRFLDNRLFATCSDDTTIALWDLRKLNTKVCTLHGHTSWVKNIEYDTNTRLLVTSGFDGNVIIWDTNRCTEDGCPHKKFFHTRFLMRMRLTPDCSKMLISTSSGYLLILHELDLTKSLEVGSYPILRARRTTSSSDLTTTSSSSGSRVSGSPCHHNDSNSTEKHMSRASQREGVSPRNSLEVLTPEVPGERDRGNCITSLQLHPKGWATLLRCSSNTDDQEWTCVYEFQEGAPVRPVSPRCSLRLTHYIEEANVGRGYIKELCFSPDGRMISSPHGYGIRLLGFDKQCSELVDCLPKEASPLRVIRSLYSHNDVVLTTKFSPTHCQIASGCLSGRVSLYQPKF
protein production: failed

MFPLTEENKHVAQLLLNTGTCPRCIFRFCGVDFHAPYKLPYKELLNELQKFLETEKDELILEVMNPPPKKIRLQELEDSIDNLSQNGEGRISVSHVGSTASKNSNLNVCNVCLGILQEFCEKDFIKKVCQKVEASGFEFTSLVFSVSFPPQLSVREHAAWLLVKQEMGKQSLSLGRDDIVQLKEAYKWITHPLFSEELGVPIDGKSLFEVSVVFAHPETVEDCHFLAAICPDCFKPAKNKQSVFTRMAVMKALNKIKEEDFLKQFPCPPNSPKAVCAVLEIECAHGAVFVAGRYNKYSRNLPQTPWIIDGERKLESSVEELISDHLLAVFKAESFNFSSSGREDVDVRTLGNGRPFAIELVNPHRVHFTSQEIKELQQKINNSSNKIQVRDLQLVTREAIGHMKEGEEEKTKTYSALIWTNKAIQKKDIEFLNDIKDLKIDQKTPLRVLHRRPLAVRARVIHFMETQYVDEHHFRLHLKTQAGTYIKEFVHGDFGRTKPNIGSLMNVTADILELDVESVDVDWPPALDD
protein production: failed

MFQDPTDEYIRTITAHCDLAGKEVLEVGCGTGRITRDLARHARRVVAVDPDETALAKARSAVPAPNVQFLPMPDGVLHFPPASFDVVIHTLSLHHVPLDRMNESLRAAAGLVRDGGVIVVVEPGDGGSFTEAKERFGAGSGDERPGREAAIRAMHGLDGWTVGETVLFRVRFLFADEDDFIATKLPGFGEKPEAFQQEVREFLARHRTAEGVVLDAGRRLNVLRRG
protein production: failed

MFQSKSRTSLTNKKTLLFGLISVFLCGMGFSIIMPVVPFLVTPYVTNASDQALMVTLLTSVYAFCVFFAAPGLGALSDRFGRRPVLLICFIGSAIGYFIFGLGGALWVLFLGRIIEGITGGSISTLFAFFADITPQEERTKYFGWVSAAAGAGAALGPAFGGLLAHFGYAMPFFFGATITFINFLFGYFYMPESLDDANRLKRIPLMRLNPFSQLLNILTIKNLGRLLIAAFFIWVPNGSLQAVMSQFAIDSFSWKPALIGMMFSIMGIQDILSQAFVMPKLLIRLTDKQIAVLGMIAEIIGYSLIATSSIFTLAPLLVIGMFVFGFGDSIFGPSFNGMVSKAASASEQGRIQGGSQAIQSLARIIGPIIGGQIYITLGHAAPAIMGVLLITVAIFILYKKTSLAK
protein production: failed

MFRPPSIKDAKKIWELIGRCKPLDINSPYCYALIGRDFFDSSIVYEEEGRIKGVVIGYLRPRAPERLFVWQVAIEAKSRGKGIAKRAIEAILKNLERKGHCIQAIEATYTPSNLASKALFHALGREWKVVWIEENFLEGALLSAQEAHEEEWLITLPFSSEALGVQGANHANL
protein production: failed

MFSGCVERSTRVLQDQEGDTVTSSPAGNKLPNINGLRDSNPRHSLGYRVQHRARTVVASVIVAMLVFAGTAAAATWLDVDNVIQHQKVDVIGQGSVSAEPTIIDPNSGKPIEILLLGQDSRDGEGNQAIGGDMTGNHQADTAMVLQISADRSAINLVSIPRDSLVDVPQCETSKGTIPAQYGVMFNSIFAGAYQTGGDLASAASCTLNAVNSLTGLNIQNFIVVDFAGLVKMIDAIGGVDICVPQDIDDPYSTLQLSKGMQHLDGTQATQYARTRYTLGDGSDTARTTRQQYLIKQLMSEALSKNLFTDTAQLYQLAKSALESLNISEGMADTAALVGLAMSLKNFNMSHLYTQTVPVVAAPSDPNRSVWADNADEVWAKMREGKSLFESTETNATSTDSTTTDGTTESQNTDENSGEQAQSTETPDATTGLITRADGTLIDPNTGGTVDPEDGSIHDATTGQYIGIADRYLNATVCAVPAKN
protein production: failed

MFSLKNYSPSPLLSAKAKEYLVFTLVTLTIVVAGTLLFLFDPASSKLFPPSPFRSLTGLYCPGCGTLRALHQLLHGNLVGAFGLNPLMMISLPFMIYSYVAYGLKTINGRTLLVWFVPPKVIWFILQAILAYWVARNIPFAPFSWLAP
protein production: failed

MFSNQYIQQRIHKANSLREEGKNPYQNGLKRSLTNAAFLEKYAYVKGLEEPKDKEKCESIVGRVKLLRLMGKACFIKVEDESTILQVYVSQNELNDEFKSLKKHLEVGDIVLVKGFPFATKTGELSIHALEFHILSKTIVPLPEKFHGLSDIELRYRQRYLDLIVNPSVKDVFKKRSLIVSSVRKFFEMEGFLEVETPMMHPIPGGANARPFITYHNALEVERYLRIAPELYLKRLIVGGFEAVFEINRNFRNEGMDHSHNPEFTMIEFYWAYHTYEDLIELSKRLFDYLLKTLNLDSKIIYNDMEVDFNQTSVISYLDALETIGGISKDILEKEDRLLAYLLEQGIKVEPNLTYGKLLAEAFDHFVEHQLINPTFVTQYPIEISPLARRNDSNPNIADRFELFIAGKEIANGFSELNDPLDQLERFKNQVAEKEKGDEEAQYMDEDYVWALAHGMPPTAGQGIGIDRLVMLLTGAKSIKDVILFPAMRPVKNDFNVESEE
protein production: failed

MFSPQAYLIFNMRKPPFDNIKVRQAVMHAFNRKLVVDNIFFGLGKISTSPFVPTEMFFDKDIPAIPFDMKKARALIKESGINPGDYTIRQLSFPYGATWDRLGEYTKQALEQLGFKVNVESTDAGGWASRTGNWDFDLTTTYSYQYGDPALGVQRLYVTSNIVKGSPFANMQGYSNPESDKLWEQAAAEVDPAKRQELYNKIQALLVAEVANGFLVDME
protein production: failed

MFSRKDIIVLGMMIFALFLGAGNIIFPPMEGFSSGQHWTSASLGFVLTGVLMPFITLVVVAILGRGEELTKDLPKWAGTGFLVILYLTIGSTFAMPRITNVAYEMAWLPLGLTENNANVRFVFSLIFNLIAMGFMISPNTIISSVGKFMTPALLVLLIAVAITVFISPLSEIQAPSNAYENSHSLLIGLTSGYQTMDVLAAIAFGGIVARALSAKNVTKTKDIVKYTISAGFVSVILLAGLYFSLFYLGATSAAVAEGATNGGQIFSRYVNVLFGSAGTWIMAGIIVLASLTTLVGVTSASADYFSKFSVRFSYPFWAALFTAMTITVSQYGLTDLLRITIPALLLIYPVAIVLVLLQFLRKKLPSIKFTYNSTLLVTVCFSLCDSLNNVKMLPESINSLLKHFPLSSEGMAWLVPTLVMLVASIFIGKALHKTHS
protein production: failed
